Laboratory results from the nanobody polyreactivity screen of Harvey et al. (2022).

Experiment: yeast display, Sf9 membrane polyspecificity reagent, FACS + sequencing; frameworks hold sequencing errors
Outline: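 Synthetic nanobody libraries on Saccharomyces cerevisiae BJ5465 were galactose-induced for 36–48 hours, stained 1 hour at 4 °C with 10% biotinylated, detergent-solubilized Sf9 membrane reagent and enriched on streptavidin microbeads. FACS then separated cells into low and high (top ~1%) gates by anti-HA (expression) and streptavidin (reagent binding) fluorescence. Genes were colony-PCR amplified, MiSeq 2 × 250 sequenced and CDR-length filtered. A clone's polyreactivity label is that of its gate of origin.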

| Sequence | polyreactivity (PSR sort gate) |
| --- | --- |
| QVQLVESGGGLVQAGGSLRLSCAASGITFVYYVMGWYRQAPGKERELVAAINAGGGSTYYADSVKGRFTISRDNAKNTVYLQMNSLKPEDTAVYYCNARVRVRLGRNWSSYYYWGQGTQVTVSS | high polyreactivity |
| QVQLVESGGGLVQAGGSLRLSCAASGITFWFYSKGWYRQSPGNERELVAAISRSGSTNYADSVKGRFTISRDNAKNTVYLQMNSLKPEDTAVYYCAASTYKYKLLYYQYDYWGQGTQVTVSS | high polyreactivity |
| QVQLVESGGGLVQAGGSLRLSCAASGITFWGYAMGWYRQAPGKEREFVARINWSGGRTYYAESVKGRFTNSRDNAKNTVYLQMNSLKPEDTAVYYCAATSLIYGYRTYDYWGQGTQVTVSS | high polyreactivity |
| QVQLVESGGGLVQAGGSLRLSCAASGITFWKYAMGWYRQAPGKERELVAVITKSGGSTYYADSVKGRFTISRDNAKNTVYLQMNSLKPEDTAVYYCAASSETYYYGYEYWGQGTQVTVSS | high polyreactivity |
| QVQLVESGGGLVQAGGSLRLSCAASGITFWKYTMGWYIPAPGKERELVASIRIGGSTYYADSVKGRFTISRDNAKNTVYLQMNSLKPEDTAVYYCAAKGIYGLQGSPRSGYYYWGQGTQVTVSS | high polyreactivity |
| QVQLVESGGGLVQAGGSLRLSCAASGITFWNYAMGWYRQAPGKERELVAAISYSGGSTYYADSVKGRFTISRDNAKNTVYLQMNSLKPEDTAVYYCAATLPTNWVRYEYWGQGTQVTVSS | low polyreactivity |
| QVQLVESGGGLVQAGGSLRLSCAASGITFWSNSMGWYRQAPGKERELVATITSSGGDNTNYADSVKGRFTISRDNAKNSVYLQMNSLKPEDTAVYYCNKEGQQSYRWRMDYWGQGTQVTVSS | low polyreactivity |
| QVQLVESGGGLVQAGGSLRLSCAASGITFWSYAMGWYRQAPGKERELVAAITWRGGSTYYADSVKGRFTISRDNAKNTVYLQMNSLKPEDTAVYYCNAVYRRDGYNYWGQGTQVTVSS | high polyreactivity |
| QVQLVESGGGLVQAGGSLRLSCAASGITFWYYAMGWYRQAPGKERELVAVISRGGSTYYADSVKGRFTISRDNAKNTVYLQMNSLKPEDTAVYYCAARQRWYTYTRQEYDYWGQGTQVTVSS | high polyreactivity |
| QVQLVESGGGLVQAGGSLRLSCAASGITFYDNDMGWYRQAPGKERELVAGITGTTVGTYYADSVKGRFTISRDYAKNTVYLQMNSLKPEDTAVYYCAATSLAGYYQFDYWGQGTQVTVSS | low polyreactivity |
| QVQLVESGGGLVQAGGSLRLSCAASGITFYDYAMGWYRQAPWKERELVAAISFSGSRTYYADSVKGRFTISRDNAKNTVYLQMNSLKPEDTAVYYCAASQARNYKIYDYWGQGTQVTVSS | high polyreactivity |
| QVQLVESGGGLVQAGGSLRLSCAASGITFYDYAMGWYRQEPGKERELVAAINSSGVRTYYADSVKGRFTISRDNAKNTVYLQMNSLKPEDTAVYYCAAVRRGPYISRSDMDYYWGQGTQVTVSS | high polyreactivity |
| QVQLVESGGGLVQAGGSLRLSCAASGITFYGNAMGWYRQAPGKERELVAAISSSGGTTYYADSVKGRFTISRDNAKNTVYLQMNSLKPEDTAVYYCNALHPVVYYGTYFNLRRYDYWGQGTQVTVSS | low polyreactivity |
| QVQLVESGGGLVQAGGSLRLSCAASGITFYGNAMGWYRQAPGKERELVANTYYADSVKGRFTISRDNAKNTVYLQMNSLKPEDTAVYYCATRNARYRSQPPGYDYWGQGTQVTVSS | low polyreactivity |
| QVQLVESGGGLVQAGGSLRLSCAASGITFYGNAMGWYRQAPGKERELVATISRSDGRTYYADSVKGRFTISRDNANNTVYLQMNSLKPEDTAVYYCAAYTTRPYWGQGTQVTVSS | high polyreactivity |
| QVQLVESGGGLVQAGGSLRLSCAASGITFYGYAMGWYRQAPGKERELVARISSGGTTKYADSVKGRFTISRDNAKNTVYLQMNSLKPEDTAVYYCAVGGYWWYYGFYYWGQGTQVTVSS | high polyreactivity |
| QVQLVESGGGLVQAGGSLRLSCAASGITFYGYAMGWYRQAPGKERELVAVITSSGSSTYYADSVKGRFTISRDNAKNTVYLQMNSLKPEDTAVYDCNARPGRRSLRSRTYDYWGQGTQVTVSS | high polyreactivity |
| QVQLVESGGGLVQAGGSLRLSCAASGITFYHYAMGWYRQAPGKKRELVASITDGGITKYADSVKGRFTISRDNAKYTVYLQMNSQNPEDTAVYYCAAIAYPDIPTYFDYDSDFFYWGQGTQVTVSS | high polyreactivity |
| QVQLVESGGGLVQAGGSLRLSCAASGITFYIYAMGWYRQAPGKEREFVAAISDDGSTHYADSVKGRFTISRDNAKNTVYLQLNSLKPEDTAVYYCNADYYWFFDFFDYDYWGQGTQVTVSS | low polyreactivity |
| QVQLVESGGGLVQAGGSLRLSCAASGITFYIYAMGWYRQSPGKERELVATISWSDGRTYYADSVKGRFTISRDNAKNTVYLLMNSLKPEDTAVYYCAADWWYYQFDYEYWGQGTQVTVSS | low polyreactivity |
| QVQLVESGGGLVQAGGSLRLSCAASGITFYKNVMGWYRQAPGKERELVAAISSSGGSTYYADSVKGRFTISRDNAKNTVYLQMNSLKPEDTAVYYCAADDPLYTPYEFDYWGQGTQVTVSS | low polyreactivity |
| QVQLVESGGGLVQAGGSLRLSCAASGITFYKNVMGWYRQAPGKERELVAAISSSGGSTYYADSVKGRFTISRDNAKNTVYLQMNSLKPEDTAVYYCAADEDDVVSGFLRYFYVAYYYWGQGTQVTVSS | low polyreactivity |

| Sequence | polyreactivity (PSR sort gate) |
| --- | --- |
| QVQLVESGGGLVQAGGSLRLSCAASGITFYKYTMGWYRQAPGKERELVAAISVRGGRTYYADSVKGRFTISRDNAKNTVYLQMNSLKPEDTAVYYCNRVPKDAYDYWGQGTQVTVSS | high polyreactivity |
| QVQLVESGGGLVQAGGSLRLSCAASGITFYKYTMGWYRQAPGKERELVAAISVRGGRTYYADSVKGRFTISRDYAKNTVDLQMNSLKPEDTAVYYCAAGSQPGRKYYYWGQGTQVTVSS | high polyreactivity |
| QVQLVESGGGLVQAGGSLRLSCAASGITFYLYAMGWYRQAPGKERELVAAISSSGGSTYYADSVKGRFTISRDNAKNTVYLQMNSLKPEDTAVYYCNASRRTVPYRYDYWGQGTQVTVSS | high polyreactivity |
| QVQLVESGGGLVQAGGSLRLSCAASGITFYPYVMGWYRQAPGKERELVAVITWSGGRTYYADSVKGRFTISRDNAKNTVYLQMNSLKPEDTAVYYCAADPLSGYDYWGQGTQVTVSS | low polyreactivity |
| QVQLVESGGGLVQAGGSLRLSCAASGITFYRNAMGWYRQAPGKERELVAAISWSGGRTYYADSVKGRFTISRDNAKNTVYLQMNSLKPEDTAVYYCNKYTHYYDYDYWGQGTQVTVSS | high polyreactivity |
| QVQLVESGGGLVQAGGSLRLSCAASGITFYRNAMGWYRQATGKERELVAAITSGTSTYYADSVKGRFTISRDNAKNTVYLQMNSLKPEDTAVYYCAKRTPPGYYGFDYWGQGTQVTVSS | low polyreactivity |
| QVQLVESGGGLVQAGGSLRLSCAASGITFYRYAMGWYRQAPGKEREFVAAITWGSTYYADSVKGRFTISRDNAKNTVYLQMNSLKPEDTAVYYCNKKGYTVGATVGYWGQGTQVTVSS | low polyreactivity |
| QVQLVESGGGLVQAGGSLRLSCAASGITFYRYVMGWYRQAPGKERELVAAITSRGGSTSYADSVKGRFTISRDNAKNTVYLQMNSLKPEDTAVYNCAADLSGWGRDARGAYDYWGQGPQVTVSS | high polyreactivity |
| QVQLVESGGGLVQAGGSLRLSCAASGITFYSYAMGSYRQAPGKERELVAAISWRGGSTRYADSVKGRFTISRDNAKNTVYLQMNSLKPEDTAVYYCAARLRTKLPIPSTVGYWGQGTQVTVSS | high polyreactivity |
| QVQLVESGGGLVQAGGSLRLSCAASGITFYSYAMGWYRQAPGKERELVAAINRSGGSTYYADSVKGRFTISRDNAKNTVYLQMNSLKPEDSAVYYCAAEEGRVFSGGYDYWGQGTQVTVSS | high polyreactivity |
| QVQLVESGGGLVQAGGSLRLSCAASGITFYTYAMGWYRQAPGKERELVAAITGTGTSTYYADSVKGRFTISRDNAKNTVYLQMNSLKPEDTAVYYCAAYKRGLPVKRDSWGQGTQVTVSS | high polyreactivity |
| QVQLVESGGGLVQAGGSLRLSCAASGITFYVYAMGWYRQAPGKERELVASITSGGGSTDYADSVKGRFTISRDNAKNTVYLQMNSLKPEDTAVYYCAARYPLLNQLYDFDYWGQGTQVTVSS | low polyreactivity |
| QVQLVESGGGLVQAGGSLRLSCAASGITFYWYAMGWYRQAPGKERELVARISSTGGSTYYADSVKGRFTISRDNAKNTVYLQMNSLKPEDTAVYYCNAVGRLYLYGSWGQGTQVTLSS | high polyreactivity |
| QVQLVESGGGLVQAGGSLRLSCAASGITFYYNTMGWYRQAPGKERELVAAISSRSGSTYYADSVKGRFTISRDKAKNNVSLQMNCLKPEDTAVYYCAARRAAKYYWGQGTQVTVSS | high polyreactivity |
| QVQLVESGGGLVQAGGSLRLSCAASGITFYYYAMGWYRQAPGKERELVAAISSGGRTYYADSVKGRFTISRDNAKNTVYLQMNSLKPEDTAVYYCAASFLVTSREYDYWGQGTQVTVSS | high polyreactivity |
| QVQLVESGGGLVQAGGSLRLSCAASGITGHNAMGWYRQAPGKERELVARISSGGRTNYADSVKGRFTISRDNAKNTVYLKMNSLKPEDTAVYYCAAGFRVGSFLRYNYWGQGTKVTVSS | high polyreactivity |
| QVQLVESGGGLVQAGGSLRLSCAASGITIAGYAMGWYRQAPGKERELVAAISSRGSSTRYADSVKGRFTISRDNAKNTVYLQMNSLKPEDSAVYYCAARNEYWGQGTQVTVSS | high polyreactivity |
| QVQLVESGGGLVQAGGSLRLSCAASGITIGRYAMGWYRQAPGKERELVAAISSTGGRTYYADSVKGRFTISRDNAKNTVYLQMNSLKPEDTAVYYCAKKFAVFVSGYGYWGQGTQVTVSS | high polyreactivity |
| QVQLVESGGGLVQAGGSLRLSCAASGITIVYYAMGWYRQAPGKERELVAAITRGGNTYYADSVKGRFTISRDNAKNTVYLQMNSLKPEDTAVYYCAAVGYYYSALDMDYWGQGTQVTVSS | low polyreactivity |
| QVQLVESGGGLVQAGGSLRLSCAASGITIYKYAMGWYRQAPGKERELVAAITRGGSTNYADSVKGRFTISRDNAKNTVYLQMNSLKPEDTAVYYCNKVYHWQSPGFGYGYWGQGSQVTVSS | high polyreactivity |
| QVQLVESGGGLVQAGGSLRLSCAASGITIYYYAMGWYRQAPGTERELVAAISTTVGSTYYADSVKGRFTISRDNAKNTVYLQMNSLKPEDTAVYYCNAYRVYAWIEYNYWGQGTQVTVSS | low polyreactivity |
